# Values quoted from earlier work in paper PMC7379096 (ACS Omega, 2020).
# Settings: stated in the method section, no reference given
substance,measurement,value
Immunoglobulin G [IgG],pI,5.5–8.3
